According to PMC5072170:

Tested on: Cc1cn([C@H]2C[C@H](O)[C@@H](COP(=O)(O)OP(=O)(O)O[C@H]3O[C@H](C)[C@@H](O)[C@H](N)[C@H]3O)O2)c(=O)[nH]c1=O
Experiment: purified protein
Settings: 5 mM N10-formyl-THF, 50 mM HEPPS pH 8.0, hyperbolic

In the case of QdtF (Providencia alcalifaciens), the Km is reported as 450 ± 90 µM, the kcat is reported as 2.43 ± 0.31 s⁻¹ and the kcat/Km is reported as 5400 M⁻¹ s⁻¹.
